EC50 data for four substances are collected here from article PMC5663709.

For assay [1], the target named is recombinant hemagglutinin (HA) trimer of H3N2 A/Wisconsin/67/2005, ectodomain (influenza A virus A/Wisconsin/67/2005 (H3N2)). Description: ELISA.
Assay [2] deals with cell surface-expressed H3N2 WN/05 HA trimer (influenza A virus A/Wisconsin/67/2005 (H3N2)). Description: FACS.
Assay [3] addresses recombinant hemagglutinin (HA) trimer of H5N1 A/Vietnam/1203/2004, ectodomain (influenza A virus A/Vietnam/1203/2004 (H5N1)) (UniProt Q6DQ33). Description: ELISA.
The target of assay [4] is recombinant hemagglutinin (HA) trimer of H1N1 A/California/07/2009, ectodomain (influenza A virus A/California/07/2009 (H1N1)) (UniProt C3W5X2). The experiment in a line: ELISA.
The target of assay [5] is recombinant hemagglutinin (HA) trimer of H7N9 A/Anhui/1-BALF_RG17/2013, ectodomain (influenza A virus A/Anhui/1-BALF_RG17/2013 (H7N9)). The experiment in a line: ELISA.

Turning to C05, the half-maximal effective concentration (EC50) is 0.00844 µg/mL in assay [1] and 0.13 µg/mL in assay [2].

Consider CR8020, for which the EC50 in assay [1] was 0.0194 µg/mL; in assay [2], 0.569 µg/mL.

Consider F10, for which the EC50 in assay [3] is 0.021 µg/mL; in assay [4] it was 0.0122 µg/mL.

As to FI6V3, the EC50 amounted to 0.0789 µg/mL in assay [1]; 0.314 µg/mL in assay [5]; 0.00648 µg/mL in assay [3]; 0.0107 µg/mL in assay [4]; 0.065 µg/mL in assay [2].
